Measurements from publication PMC12658005 (Communications Biology, 2025).

Target: the molecule itself
Assay: cryo-EM structure

B1: F plasmid TraT protein complex (TraT-TS) (natural protein)
chain: CGAMSTAIKKRNLEVKTQMSETIWLEPASERTVFLQIKNTSDKDMSGLQGKIADAVKAKGYQVVTSPDKAYYWIQANVLKADKMDLRESQGWLNRGYEGAAVGAALGAGITGYNSNSAGATLGVGLAAGLVGMAADAMVEDVNYTMITDVQIAERTKATVTTDNVAALRQGTSGAKIQTSTETGNQHKYQTRVVSNANKVNLKFEEAKPVLEDQLAKSIANIL
modifications: lipid anchor on the N-terminal cysteine (density not resolved)
notes: also called TraTF; TraT exclusion protein complex; copies: 10
stoichiometry N: 10
